Tests used:
Test in all cases: FRET or BRET
[1] = target: hRIIβ-RLuc8 (PKA regulatory subunit RIIβ conjugated to mutant Renilla luciferase) (human) (UniProt P31323)
[2] = target: hRIIα-RLuc8 (PKA regulatory subunit RIIα conjugated to mutant Renilla luciferase) (human) (UniProt P13861)
[3] = target: hRIβ-Rluc8 (PKA regulatory subunit RIβ conjugated to mutant Renilla luciferase) (human) (UniProt P31321)
Sequence of hRIβ-Rluc8 (PKA regulatory subunit RIβ conjugated to mutant Renilla luciferase) (human) (P31321 whole entry, change not shown): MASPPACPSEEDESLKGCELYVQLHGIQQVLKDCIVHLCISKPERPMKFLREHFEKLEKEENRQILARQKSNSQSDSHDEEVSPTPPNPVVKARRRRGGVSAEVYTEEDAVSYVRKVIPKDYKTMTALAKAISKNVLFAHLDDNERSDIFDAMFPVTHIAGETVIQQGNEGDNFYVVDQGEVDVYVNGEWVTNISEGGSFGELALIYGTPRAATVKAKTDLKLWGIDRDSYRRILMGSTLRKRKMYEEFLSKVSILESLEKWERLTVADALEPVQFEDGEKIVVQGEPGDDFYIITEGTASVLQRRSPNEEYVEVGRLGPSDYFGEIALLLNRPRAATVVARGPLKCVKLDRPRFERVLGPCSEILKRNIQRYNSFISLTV

Sequence of hRIIβ-RLuc8 (PKA regulatory subunit RIIβ conjugated to mutant Renilla luciferase) (human) (P31323 whole entry, change not shown): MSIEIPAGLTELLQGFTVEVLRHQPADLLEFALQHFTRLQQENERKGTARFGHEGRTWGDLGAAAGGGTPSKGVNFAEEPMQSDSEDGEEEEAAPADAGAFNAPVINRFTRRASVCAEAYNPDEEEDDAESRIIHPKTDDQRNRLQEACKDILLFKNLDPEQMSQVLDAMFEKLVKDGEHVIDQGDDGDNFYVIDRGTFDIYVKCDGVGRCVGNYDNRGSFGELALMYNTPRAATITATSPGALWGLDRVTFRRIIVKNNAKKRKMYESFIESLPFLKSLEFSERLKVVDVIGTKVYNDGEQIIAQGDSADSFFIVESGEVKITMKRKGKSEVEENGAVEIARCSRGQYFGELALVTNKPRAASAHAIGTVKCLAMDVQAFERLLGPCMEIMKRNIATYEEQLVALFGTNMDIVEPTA
Sequence of hRIIα-RLuc8 (PKA regulatory subunit RIIα conjugated to mutant Renilla luciferase) (human) (P13861 whole entry, change not shown): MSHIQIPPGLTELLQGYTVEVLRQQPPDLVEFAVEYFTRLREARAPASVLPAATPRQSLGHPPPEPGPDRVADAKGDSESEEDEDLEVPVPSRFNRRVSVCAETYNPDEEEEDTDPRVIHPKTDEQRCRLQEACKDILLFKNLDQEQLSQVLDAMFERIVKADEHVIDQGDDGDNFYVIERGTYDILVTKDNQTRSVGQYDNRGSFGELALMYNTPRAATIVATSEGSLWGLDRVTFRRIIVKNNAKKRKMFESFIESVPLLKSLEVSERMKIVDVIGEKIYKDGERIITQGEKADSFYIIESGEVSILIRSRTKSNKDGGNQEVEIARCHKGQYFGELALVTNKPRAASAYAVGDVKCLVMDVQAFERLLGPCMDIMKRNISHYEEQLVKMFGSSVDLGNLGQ

## GFP-hCα (GFP-tagged PKA catalytic subunit Cα) (from UniProt P17612 1-351) (natural protein)
[1]
  BRET signal left after Fsk/IBMX (percent of the unstimulated sensor): 28%
[2]
  BRET signal left after Fsk/IBMX (percent of the unstimulated sensor): 25%
[3]
  BRET signal left after Fsk/IBMX (percent of the unstimulated sensor): 75%

Reference: PMC5987717
